# From paper PMC11190292, “Hetero-oligomerization of TDP-43 carboxy-terminal fragments with cellular proteins contributes to proteotoxicity” (Communications Biology, 2024)
# Molecular target: the molecule itself
# Experiment: fluorescence correlation spectroscopy (FCS); soluble supernatant of transfected Neuro2a cell lysate (50 mM Hepes-KOH pH 7.5, 150 mM NaCl, 1% Nonidet P-40); counts per particle (CPP) against GFP monomers as read-out of homo-oligomerisation, diffusion time as read-out of size
protein,measurement,value
"GFP-tagged TDP-43 carboxy-terminal fragment 233-414 (C233) (domain or fragment, human, UniProt Q13148 233-414, looked up, Cloned into pmeGFP-C1 (HindIII/BamHI); also called G-C233; GFP-C233; source: Neuro2a, transfected, in lysate; not shown: GFP (monomeric enhanced GFP, A206K), N-terminal, kept) TFADDQIAQSLCGEDLIIKGISVHISNAEPKHNSNRQLERSGRFGGNPGGFGNQGGFGNSRGGGAGLGNNQGSNMGGGMNFGAFSINPAMMAAAQAALQSSWGMMGMLASQQNQSGPSGNNQNQGNMQREPNQAFGSGNNSYSGSNSGAAIGWGSASNAGSGSGFNGGFGSSMDSKSSGWGM",counts per particle (CPP) relative to GFP monomers,~4 fold
